Measured values published in patent publication US20090291088A1, “THERAPEUTIC COMBINATIONS OF ANTI-IGF-1R ANTIBODIES AND OTHER COMPOUNDS” (Biogen Idec MA Inc., priority 2008, published 2009).

B1: Fab M12-E01: human anti-human IGF-1R Fab from phage display library; VH SEQ ID NO:4, VL SEQ ID NO:68 (antibody, V domains shown)
VH: EVQLLESGGGLVQPGGSLRLSCAASGFTFSPYSMLWVRQAPGKGLEWVSSIGSSGGSTRYADSVKGRFTISRDNSKNTLYLQMNSLRAEDTAMYYCARVRGILHYDILIGRNLYYYYMDVWGKGTTVTVSS
VL: QYELTQPPSVSEAPRQRVTISCSGSSSNIGNNAINWYQQLPGKPPKLLIYYDDLLPSGVSDRFSGSKSGTSGSLAISGLQSEDEADYYCAAWDDNLNGVIFGGGTKLTVL
modifications: Antibody variable heavy chain sequence; Antibody variable light chain sequence
B2: M14-C03: anti-IGF-1R antibody, allosteric blocker of IGF-1 and IGF-2 (antibody, V domains shown)
VH: EVQLLESGGGLVQPGGSLRLSCAASGFTFSKYMMSWVRQAPGKGLEWVSYISPSGGLTWYADSVKGRFTISRDNSKNTLYLQMNSLRAEDTAVYYCARDGARGYGMDVWGQGTTVTVSS
VL: DIQMTQSPATLSLSPGERATLSCRASQSVSSYLAWYQQKPGQAPRLLIYDASNRATGIPARFSGSGSGTDFTLTISSLEPEDFAVYYCQQRSNWPPEVTFGPGTKVDIK
modifications: Antibody variable heavy chain sequence; Antibody variable light chain sequence
B3: 20C8.3B8: murine anti-human IGF-1R monoclonal antibody from hybridoma; VH SEQ ID NO:43, VL SEQ ID NO:103 (antibody, V domains shown)
VH: DVQLQESGPDLVKPSQSLSLTCTVTGYSITSGYSWHWIRQFPGNKLEWMGYIHYSGGTNYNPSLKSRISITRDTSKNQFFLQLNSVTTEDTATYYCARSGYGYRSAYYFDYWGQGTTVTVSS
VL: DIVLTQSPASLAVSLGQRATISCRASKSVSTSAYSYMHWYQQKPGQPPKLLIYLASNLESGVPARFSGSGSGTDFTLNIHPVEEEDAATYYCQHSRELPYTFGGGTKLEIK
modifications: Antibody variable heavy chain sequence; Antibody variable light chain sequence
B4: 20D8.24B11: murine anti-human IGF-1R monoclonal antibody from hybridoma; VH SEQ ID NO:53, VL SEQ ID NO:103 (antibody, V domains shown)
VH: DVQLQESGPDLVKPSQSLSLTCTVTGYSITSGYSWHWIRQFPGNKLEWMGYIHYSGGTNYNPSLKSRISITRDTSKNQFFLQLNSVTTEDTATYYCARSGYGYRSAYYFDYWGQGTTLTVSS
VL: DIVLTQSPASLAVSLGQRATISCRASKSVSTSAYSYMHWYQQKPGQPPKLLIYLASNLESGVPARFSGSGSGTDFTLNIHPVEEEDAATYYCQHSRELPYTFGGGTKLEIK
modifications: Antibody variable heavy chain sequence; Antibody variable light chain sequence

Legend:
IGF-1R = molecular target: T1, IGF-1R (Homo sapiens, UniProt P08069); experiment: Ligand blocking assay (RIA): 125I-IGF-1 / 125I-IGF-2 binding to immobilized IGF-1R
T1 construct: human IGF-1R(1-903)-Fc (denoted hIGF-1R-Fc, generated by Biogen Idec)
Source text: Ligand blocking assay (RIA). […] Insulin (Arg-Insulin, Cat #01-207) was purchased from Upstate Cell Signaling Solutions (Lake Placid, N.Y. (now part of Millipore, Concord, Mass. (USA)). ^125I-rhIGF-1 (Cat # IM172), ^125I-rhIGF-2 (Cat# IM238) and ^125I-rhInsulin (Cat# IM166) were purchased from Amersham Biosciences (Piscataway, N.J.). AffiPure goat anti-human IgG, Fcγ fragment specific antibodies (Cat #109-005-098, Jackson ImmunoResearch, West Grove, Pa.) was used for IGF-1R-Fc capture. As detection antibody, goat anti-mouse IgG HRP (Cat #1030-05, Southern Biotech Birmingham, Ala.) was used.
Human insulin receptor α-subunit specific antibodies, Clone 83-14, (Cat #AHR0221, Biosource International, Inc., Camarillo, Calif.) and the 47-9 (Cat #E55502M, Biodesign International, Saco, M E) were used as positive controls blocking of insulin-insulin receptor binding experiments. Recombinant IGF-1R-Fc fusion protein was produced at Biogen Idec (Cambridge, Mass.).
As isotype matched mouse negative control antibodies, 2B8 (murine α-CD20.1gG,) and 2B8 mkm.G2a (murine α-CD20 MAb, IgG2a, Biogen Idec, Lot #NB3304-87, San Diego, Calif.) were used. The negative control for Fabs was R001-1B provided by Christilyn Graff (Biogen Idec, Cambridge, Mass.). PBS used in buffers was from BioWhittaker (Cat. # 17-513F, Walkersville, Md.).
Recombinant human IGF-1R (Histidine tagged version) or IGF-1R-Fc was coated onto IMMULON2 HB (high binding) Removawell strips (Dynex Technologies, Inc., cat. #6302) diluted with carbonate coating buffer pH 9.5 to a concentration of 250 ng/well. After overnight incubation at 4° C., the wells were washed three times with washing buffer (0.05% Tween 20/PBS) then blocked with blocking buffer (3% BSA/PBS) for one hour at room temperature. The blocking buffer was removed and the wells washed three more times. Antibody, Fab, or ligand preparations were diluted to desired concentration with dilution buffer (1% BSA/0.05% Tween 20/PBS) and plated at 50 μl per well in duplicate. After 45 minutes at room temperature, 100,000 cpm of either [125I] rhIGF-1 or [125I] rhIGF-2 in 50 μl dilution buffer was added per well. This was incubated at room temperature for one more hour. The wells were washed again three more times and left liquid free after the last wash. The air-dried wells were counted with the Isodata Gamma Counter.
Alternatively, Fabs were evaluated by a modified capture assay, where the IGF-1R-Fc was captured using anti-human IgG immobilized to a plate. Immobilization was carried out by overnight incubation of goat anti-human IgG, Fcγ fragment specific antibody (200 ng/well) in carbonate coating buffer. The wells were washed, blocked and 250 ng of IGF-1R-Fc was added per well.
The ligand blocking ability of the anti-IGF-1R antibody was determined by a solid phase RIA capture method as described in Example 3. […] After 1 hour of incubation at room temperature, the wells were washed and counted for bound radioactivity by a Gamma Counter. An isotype matched negative antibody control, IDEC-151 (human G4), was used. Percent (%) inhibition was calculated as =[1−(Ave.CPM with Ab)/(Ave.CPM with buffer)]×100%.

Calu-6 = experiment: IGF driven tumor cell growth, CELL TITER-GLO, Calu-6; type: cell-based, human; settings: lung cancer cells
Experimental: (§1) NCI-H23, Calu-6, Colo-205, Panc-1, BxPC-3 (ATCC) tumor lines were purchased from ATCC. Cell lines were grown in complete growth medium containing RPMI-1640 (ATCC), 10% fetal bovine serum (Irvine Scientific Inc.) and 50 μg/ml of Gentamycin (Gibco, Invitrogen). Trypsin-EDTA solution (Sigma) was used for removal of adherent cells from culture vessels. Phosphate buffered saline, pH 7.2, was from MediaTech Inc The 96-well clear bottom plates for luminescent assay was purchased from Wallac Inc.
(§2) Cells grown to 80% monolayers were, trypsinized, washed, resuspended and plated into 96-well plates in 200 μl of 2% growth medium at 8×10^3 cells/well for NCI-H23 and Colo-205 cells; and 5×10^3 cells/well for Calu-6, Panc-1 and BxPC-3 cells. After 24 hours, the culture medium was replaced with 100 μl of serum free medium (SFM), and 50 μl of serially diluted antibodies at 4× concentration was added. […] All treatments were done in triplicates. Cell growth was measured using the CELL TITER-GLO™ Luminescent Cell Viability Assay (Promega, Madison, Wis.). The 1:1 mixture of reagent and SFM was added at 200 μl/well. Luminescence was detected on Wallac (Boston, Mass.) plate reader.
(§3) The ability of the selected murine antibodies to inhibit IGF/IGF-1R dependent in vitro growth of several human tumor lines (Lung, H-23, Calu-6; Pancreas, BxPc-3, Panc-1, MiaPaCa and Colon Colo205) was measured by a proliferation assay described in Example 13.

MCF-7 = experiment: Ki67 inhibition in MCF-7 cells; type: cell-based, human; settings: breast cancer cell
Colo-205 = experiment: IGF driven tumor cell growth, CELL TITER-GLO, Colo-205; type: cell-based, human; settings: colon cancer cell
Experimental: as §1, §2, §3

NCI-H23 = experiment: IGF driven tumor cell growth, CELL TITER-GLO, H-23; type: cell-based, human; settings: for Proliferation of Tumor Cells H-23: lung cancer cells
Experimental: as §1, §2, §3
A commercially available anti-IGF-1R antibody (IR3) was used as a positive control. The mouse IgG (anti-IDectin, IgG1) and human gamma 4 version of IDEC-152 antibody of irrelevant specificity were used as isotype matched controls for the experiments. […]

| Molecule | IGF Blocking IGF-2 (IGF-1R; Fabs, 125I-IGF-2) | Proliferation of Tumor Cells Calu-6 (Calu-6) | Proliferation of Tumor Cells MCF-7* (Ki67 Inhibit.) (MCF-7) | Proliferation of Tumor Cells Colo-205 (Colo-205) | IGF Blocking IGF-1 (IGF-1R; murine monoclonal antibodies) | IGF Blocking IGF-2 (IGF-1R; murine monoclonal antibodies) | inhibition of IGF-1 and IGF-2 driven cell proliferation in H-23 (NCI-H23; NCI-H23 lung tumor cell line) | Proliferation of Tumor Cells H-23 (NCI-H23) |
| --- | --- | --- | --- | --- | --- | --- | --- | --- |
| B1 | ++ (>30%@1ug/ml) | – | – | – | – | – | – | – |
| B2 | + (>30%@10ug/ml) | – | – | – | – | – | – | – |
| B3 | – | +++ (>30%@0.1 μg/ml) | +++ (>50%@0.1 μg/ml) | +++ (>30%@0.1 μg/ml) | +++ (>40%@0.1 μg/ml) | +++ (>40%@0.1 μg/ml) | showed inhibition | +++ (>30%@0.1 μg/ml) |
| B4 | – | +++ (>30%@0.1 μg/ml) | ++ (>50%@1 μg/ml) | +++ (>30%@0.1 μg/ml) | +++ (>40%@0.1 μg/ml) | +++ (>40%@0.1 μg/ml) | – | ++++ (>30%@0.01 μg/ml) |
